From the RNAGym collection of RNA variant scans (doi:10.7554/elife.80360)

B1: HDV Ribozyme (parent)
chain: GGCCGGCAUGGUCCCAGCCUCCUCGCUGGCGCCGGCUGGGCAACAUUCCGAGGGGACCGUCCCCUCGGUAAUGGCGAAUGGGACCCA

Variants of: B1
Assay: self-cleavage, relative activity (ratio to wild type); higher = more cleavage; co-transcriptional

Variant | self-cleavage
G52C A78C | 0.0723
G2U U9C | 0.104
C4A G68C | 0.115
G1A C21U | 0.121
C32U A42C | 0.233
G2U | 0.0584
G55U A83G | 0.842
A8U C44G | 0.731
C44A G67C | 0.712
U37C C58U | 0.997
C21G G50A | 0
G55U C86U | 0.923
G6A C75G | 0.0369
G17A U69G | 0.906
G34C A87C | 0.224
C24U G31A | 0.169
G31U U65A | 0.318
G40U G76A | 0.789
C4G U12G | 0.18
C18A U60A | 0.135
U12A U20A | 0.101
G1U C58A | 0.237
U20G C48U | 0.237
U9C C49G | 1.03

Variant | self-cleavage
C30U A78C | 0.0978
C4G G31A | 0.0639
G39C C64G | 0.295
C4A C49A | 0.424
C7A C36A | 0.0923
C14G U47G | 0.383
G52A G67A | 0.923
G54C G81C | 0.196
G5C G40A | 0.208
C3G A78U | 0.125
U37A G59A | 0.237
C30G C33G | 0.115
C63A U72G | 0.369
G25C G73U | 0.185
G67U A77U | 0.681
U37G A71G | 0.0594
G40C A71G | 0.162
G17U A45C | 0.161
G55C G59A | 1.06
G25C C63A | 0.0755
A8U A87U | 0.963
U9G A16C | 0.712
U12G C18G | 0
G53U C86U | 1.14

Variant | self-cleavage
G59A A83U | 0.59
G40U A45U | 0.361
G17C U72C | 0
A16G U60A | 1.25
G55A C86A | 0.978
G50A A51C | 0.991
C57U A78G | 0.639
C15U U60A | 1.15
G34A U60G | 0.237
C75G A87U | 0.143
A45C C57A | 0.504
U47G U69C | 0.727
A16C A51G | 0.475
C36A A77C | 0.259
A51G U60A | 0.852
C21U G38A | 0.177
G29C A87C | 0.0932
C18U C57A | 0.958
G2A A51U | 0.155
U46C C86A | 0.849
C18G C36A | 0.095
C48G U79C | 0.345
G28A C44U | 0.215
C32U C33U | 0.166

Variant | self-cleavage
G76U G81C | 0.628
C4U U65C | 1.06
G34A A70C | 0.0941
G6C A8U | 0.346
C84G A87U | 0.842
U65G G80A | 0.288
C13U A77G | 0.399
G53A G67U | 0.884
U20G C75G | 0
G39A C66A | 0.441
A45G G73C | 0.388
C48G G80A | 0.4
A8G U46C | 0.782
C24G G28C | 0.214
A42U C86U | 0.58
C4G G5U | 0.0545
C58U A83C | 0.403
U12A U60C | 0.391
C13G G31C | 0
C18A G50A | 0.23
G67C A70C | 0.655
C18A C19U | 0.0339
G2U G67U | 0.0563
C21A A51C | 0.175

Variant | self-cleavage
G2A A43U | 0.0203
G82U C84A | 0.261
G73U G81A | 0.178
G17U C48U | 0.458
C49G C64G | 0.308
C58U G82A | 0.906
C22G G81U | 0.089
G39A C57A | 0.41
C7A C61U | 0.441
G28C A87U | 0.0455
A8C C85G | 0.798
U60C A83U | 0.653
U23C G39U | 0.716
C21A G28C | 0
G6A G28U | 0.0573
A8C A43C | 0.185
G53C A78U | 0.525
C36U A45U | 0.658
G6A A83U | 0.324
C19U C33U | 0.234
G35A G82A | 0.265
G55C U79A | 0.527
U65C A70G | 0.705
C15A A51G | 0.923

Variant | self-cleavage
U20G G39C | 0.175
C14A C18G | 0
C41A C85G | 0.86
U27C A70G | 0.739
A8C C75G | 0.277
A45G A70U | 1.09
G25A G81U | 0.112
A8C U79G | 0.462
C22U A71G | 0.506
G25A G76A | 0.203
C24A U72G | 0.364
A16C U69G | 0.923
G29C C57A | 0.125
C14U A16C | 1.07
G10C A77C | 0.208
G68A G80A | 0.367
G6U C21U | 0.122
G53U G54U | 0.831
G50U A87G | 0.927
G73A | 0.691
C57G C85G | 1.09
G39A C66G | 0.437
G29C C41U | 0.0297
U46A C49U | 0.739

Variant | self-cleavage
C32A A51C | 0.244
G1C G67A | 0.0898
A45U C48U | 0.79
C49U G82A | 0.436
G38C G50C | 0.35
G50U C63A | 0.57
C7G A78C | 0.175
C3G G10A | 0.107
U9G C18U | 0.504
U20A A83C | 0
C32G U60A | 0.131
C14U G59A | 1.31
G38U U60C | 0.374
C48G G68U | 0.88
C36A G53C | 0.0277
G25C U79C | 0.0923
G17U U47G | 0.35
G82U C85A | 0.256
C19A C64A | 0.141
A16G C48U | 1.42
C75A A77U | 0.119
C13U C58A | 0.665
A16G A43U | 0.623
A42G C64U | 0.45

Variant | self-cleavage
C32U U65A | 1.08
U47A G73A | 0.447
G2U A45G | 0
C22G C36A | 0.0773
G34U C84U | 0.261
G40A C48G | 1.06
C4G G76A | 0.343
G17U C33U | 0.326
G76U A77C | 0.295
A42C C84A | 0.17
G54C C84G | 0.917
C48A G76A | 0.727
U46A G76A | 0.831
C22A G76U | 0.554
A16G C18U | 0.554
G53C C61G | 0.955
U9C G68A | 1.17
A16G C62A | 0.877
G10U C66G | 0.717
U23A G73A | 0.575
A70U A77U | 0.35
C44U U65C | 0.61
C36A C49U | 0.116
U12C U65C | 0.492

Variant | self-cleavage
C32G G68U | 0.089
A16U C62U | 1.04
C4U C49U | 0.789
C30A U69A | 0.353
C44A A83C | 0.269
C3G U69A | 0.582
G6C C44U | 0
U20G A78C | 0.249
C64U G67A | 0.92
C19A C44A | 0.149
G29A C44A | 0.198
A71C A83U | 0.297
A42G | 0.562
A8U G81A | 0.148
G1U U9C | 0.554
G34C C57A | 0.288
G31U C85A | 0.288
G35C G67U | 0.133
G1A C15G | 0
C15G G50A | 0.723
G25U A87G | 0.163
G35A G73A | 0.372
C7U A78U | 0.166
A16U C30A | 0.201

Variant | self-cleavage
G1U U65A | 0.191
C3G C19U | 0.158
A8G A77U | 0.0978
C44G U46G | 0.609
U9G A77C | 0.185
C30A C44G | 0.0831
U47A A70C | 0.957
U69A C84A | 0.935
G25U C62G | 0.253
U20C C26U | 0.192
U46A U60A | 0.751
C15U C44A | 0.684
G68A C84A | 0.817
A16U U60A | 0.587
G73A G82A | 0.18
G25C G76U | 0.0852
A45G G55A | 1.08
U12G C61A | 0.798
G31U A43C | 0.0504
A56C U65C | 1.33
C3G G54A | 0.683
G55A U72A | 0.917
A8C A45C | 0.156
U46A C75G | 0.0594

Variant | self-cleavage
G25C G54A | 0.219
G2U G54A | 0.0279
G35C C63A | 0.259
G39C G80C | 0.0845
A43U G68C | 0.198
G68U A71C | 0.973
G11C C62A | 0.475
G6U U69C | 0.655
C75U U79A | 0.151
G31U C48A | 0.401
A16G C62G | 0.369
C41G C58G | 0.974
C58A A71C | 0.831
C21A G67U | 0.04
U47G C66G | 0.831
G29C A56C | 0.237
G11C C66U | 0.289
C14U G38A | 0.0652
G68U A78U | 0.237
U12A G35U | 0.0225
G29U G82C | 0.0545
C48A G80C | 0.169
C66U G73A | 0.66
A43C A78G | 0.0978

Variant | self-cleavage
C24A A78G | 0.492
C4G U46A | 0.0573
G35U C36A | 0.0831
C22A G80C | 0.229
A8U C49U | 0.739
G2U C26A | 0.0357
U37G G80U | 0.203
C58U C85U | 0.945
G40A U72C | 0.504
G28C U37A | 0.229
G10C C13G | 0.0723
U60G G74U | 0.665
G59C C86A | 0.914
G74A C84U | 0.446
C21G U47C | 0
C33A U69C | 0.342
G5U C48G | 0.554
G2A U65A | 0.173
A77G G81U | 0.348
G17A G80A | 0.205
C14G C75G | 0.0554
C57G C62U | 1.03
C75G C85G | 0.0923
A8U G10A | 0.684

Variant | self-cleavage
C24U C84A | 0.543
G31A | 0.503
G5U C33U | 0.615
C19U C64A | 0.0554
C33U G38U | 0.0978
A16G C75G | 0.222
C75A G80C | 0.18
G11U U60G | 0.381
G2U C18G | 0.0692
A45C U46C | 0.403
G28U U46G | 0
G55A A78G | 0.698
C4U A8C | 0.443
G52A G59A | 1.07
G5U A78G | 0.332
C3U A78C | 0.04
U9A G31U | 0.208
G10U G28A | 0.0791
A8C G11A | 0.229
C32G A77U | 0.123
G17A G82U | 0.346
G59A C61G | 1.07
C13G U27A | 0.391
G29A C84A | 0.245

Variant | self-cleavage
C32U U46C | 0.554
C26A G82C | 0.342
A45G G82C | 0.391
U20C U60A | 0.115
C57G U72A | 0.635
C62U C85A | 0.847
G1A G17A | 0.0811
G17A U27C | 0.309
G17A G76A | 0.787
C62U C75G | 0.406
G31A A71C | 0.251
G55C C64U | 1.12
C19U C63U | 0.134
U27G C62A | 1.09
C62U U69A | 1.24
G34A G68U | 0.171
G31U C84G | 0.138
A16G C24U | 0.808
G54A C84G | 0.462
C21G C22A | 0.0396
G29A A83U | 0.208
G1U G39C | 0.397
